Data on one molecule can be found in article PMC7031079, “ATBS1-INTERACTING FACTOR 2 negatively regulates dark- and brassinosteroid-induced leaf senescence through interactions with INDUCER OF CBF EXPRESSION 1” (Journal of Experimental Botany, 2019).

The test has as its target T1, ICE1FL-myc (Arabidopsis thaliana, UniProt Q9LSE2 1-494).
T1 sequence (looked up): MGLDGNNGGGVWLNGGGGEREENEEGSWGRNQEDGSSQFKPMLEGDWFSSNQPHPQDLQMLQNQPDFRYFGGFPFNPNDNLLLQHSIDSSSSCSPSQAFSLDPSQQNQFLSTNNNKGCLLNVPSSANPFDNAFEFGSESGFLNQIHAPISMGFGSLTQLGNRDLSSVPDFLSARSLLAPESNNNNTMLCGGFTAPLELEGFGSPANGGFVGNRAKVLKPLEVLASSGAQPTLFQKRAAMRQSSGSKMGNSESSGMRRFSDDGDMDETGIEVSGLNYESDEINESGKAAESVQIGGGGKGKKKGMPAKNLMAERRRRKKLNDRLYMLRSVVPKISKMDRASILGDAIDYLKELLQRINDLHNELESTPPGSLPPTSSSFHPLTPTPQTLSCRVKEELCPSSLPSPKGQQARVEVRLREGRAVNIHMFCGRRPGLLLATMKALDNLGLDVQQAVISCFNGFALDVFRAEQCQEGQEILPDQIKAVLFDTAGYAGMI
The test can be described thus: cell-based or functional assay.

B1: AIF2FL-nYFP (natural protein, Arabidopsis thaliana, UniProt Q9C8Z9 1-221, looked up)
chain: MASLISDIEPPTSTTSDLVRRKKRSSASSAASSRSSASSVSGEIHARWRSEKQQRIYSAKLFQALQQVRLNSSASTSSSPTAQKRGKAVREAADRALAVSARGRTLWSRAILANRIKLKFRKQRRPRATMAIPAMTTVVSSSSNRSRKRRVSVLRLNKKSIPDVNRKVRVLGRLVPGCGKQSVPVILEEATDYIQALEMQVRAMNSLVQLLSSYGSAPPPI
Consider B1, for which the “pCBF2::Luc reporter expression in tobacco leaves on co-expression of full-length AIF2 (p35S::AIF2FL-EGFP) and ICE1 (p35S::ICE1FL-EGFP), against the non-transformed mock control” value was roughly 5 fold.
